Data: article PMC3062965 (Apoptosis : an international journal on programmed cell …, 2010)
Several values for one entry are separate records, joined by “and”; a condition that tells them apart may be missing. Equal entries are not always repeated.

Molecular target: full-length RAIDD (1-199) (human, UniProt P78560 1-199)
Assay: SEC-MALS

Sequence of full-length RAIDD (1-199) (P78560 whole entry): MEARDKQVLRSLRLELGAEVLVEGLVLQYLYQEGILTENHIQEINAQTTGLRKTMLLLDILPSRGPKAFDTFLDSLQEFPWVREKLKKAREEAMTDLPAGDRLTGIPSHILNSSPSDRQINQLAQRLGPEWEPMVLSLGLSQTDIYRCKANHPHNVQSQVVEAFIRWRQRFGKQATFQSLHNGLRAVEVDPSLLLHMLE

B1: PIDD DD (777-883) (domain or fragment, human, UniProt Q9HB75 777-883, looked up)
chain: LNLGDAETGFLTQSNLLSVAGRLGLDWPAVALHLGVSYREVQRIRHEFRDDLDEQIRHMLFSWAERQAGQPGAVGLLVQALEQSDRQDVAEEVRAVLELGRRKYQDS
In the case of B1, the “stoichiometry N” value is reported as 7 RAIDD per complex and 5 PIDD DD per complex.
